# Assay results taken from ChEMBL document CHEMBL1143427, “Interactions of ceftobiprole with beta-lactamases from molecular classes A to D” (Antimicrob Agents Chemother, 2007).
# Key:
# [1] = substrate: CC(C)(O/N=C(\C(=O)N[C@@H]1C(=O)N2C(C(=O)[O-])=C(C[n+]3ccccc3)CS[C@H]12)c1csc(N)n1)C(=O)O; test: (§1) Activity of Escherichia coli CTX-M-15 assessed as drug hydrolysis by spectrophotometry
# [2] = substrate: CC1(C)S[C@@H]2[C@H](NC(=O)Cc3ccccc3)C(=O)N2[C@H]1C(=O)O; test: as §1
# [3] = substrate: CO/N=C(\C(=O)N[C@@H]1C(=O)N2C(C(=O)O)=C(COC(C)=O)CS[C@H]12)c1csc(N)n1; test: as §1
# [4] = substrate: CO/N=C(\C(=O)N[C@@H]1C(=O)N2C(C(=O)[O-])=C(C[N+]3(C)CCCC3)CS[C@H]12)c1csc(N)n1; test: as §1
# [5] = substrate: Nc1nc(/C(=N/O)C(=O)N[C@@H]2C(=O)N3C(C(=O)O)=C(/C=C4\CCN([C@@H]5CCNC5)C4=O)CS[C@H]23)ns1; test: as §1
# [6] = substrate: O=C(Cc1cccs1)N[C@@H]1C(=O)N2C(C(=O)[O-])=C(C[n+]3ccccc3)CS[C@H]12; test: as §1
# [7] = substrate: CC(C)(O/N=C(\C(=O)N[C@@H]1C(=O)N2C(C(=O)[O-])=C(C[n+]3ccccc3)CS[C@H]12)c1csc(N)n1)C(=O)O; conditions: Escherichia coli
# [8] = substrate: CC1(C)S[C@@H]2[C@H](NC(=O)Cc3ccccc3)C(=O)N2[C@H]1C(=O)O; conditions: Escherichia coli
# [9] = substrate: CO/N=C(\C(=O)N[C@@H]1C(=O)N2C(C(=O)O)=C(COC(C)=O)CS[C@H]12)c1csc(N)n1; conditions: Escherichia coli
# [10] = substrate: CO/N=C(\C(=O)N[C@@H]1C(=O)N2C(C(=O)[O-])=C(C[N+]3(C)CCCC3)CS[C@H]12)c1csc(N)n1; conditions: Escherichia coli
# [11] = substrate: Nc1nc(/C(=N/O)C(=O)N[C@@H]2C(=O)N3C(C(=O)O)=C(/C=C4\CCN([C@@H]5CCNC5)C4=O)CS[C@H]23)ns1; conditions: Escherichia coli
# [12] = substrate: O=C(Cc1cccs1)N[C@@H]1C(=O)N2C(C(=O)[O-])=C(C[n+]3ccccc3)CS[C@H]12; conditions: Escherichia coli
# [13] = substrate: CC(C)(O/N=C(\C(=O)N[C@@H]1C(=O)N2C(C(=O)[O-])=C(C[n+]3ccccc3)CS[C@H]12)c1csc(N)n1)C(=O)O; test: (§2) Activity of Providencia stuartii AmpC assessed as drug hydrolysis by spectrophotometry
# [14] = substrate: CC1(C)S[C@@H]2[C@H](NC(=O)Cc3ccccc3)C(=O)N2[C@H]1C(=O)O; test: as §2
# [15] = substrate: CO/N=C(\C(=O)N[C@@H]1C(=O)N2C(C(=O)[O-])=C(C[N+]3(C)CCCC3)CS[C@H]12)c1csc(N)n1; test: as §2
# [16] = substrate: Nc1nc(/C(=N/O)C(=O)N[C@@H]2C(=O)N3C(C(=O)O)=C(/C=C4\CCN([C@@H]5CCNC5)C4=O)CS[C@H]23)ns1; test: as §2
# [17] = substrate: O=C(Cc1cccs1)N[C@@H]1C(=O)N2C(C(=O)[O-])=C(C[n+]3ccccc3)CS[C@H]12; test: as §2
# [18] = substrate: CC(C)(O/N=C(\C(=O)N[C@@H]1C(=O)N2C(C(=O)[O-])=C(C[n+]3ccccc3)CS[C@H]12)c1csc(N)n1)C(=O)O; test: (§3) Ratio of Kcat to Km of Providencia stuartii AmpC assessed as drug hydrolysis by spectrophotometry
# [19] = substrate: CC1(C)S[C@@H]2[C@H](NC(=O)Cc3ccccc3)C(=O)N2[C@H]1C(=O)O; test: as §3
# [20] = substrate: CO/N=C(\C(=O)N[C@@H]1C(=O)N2C(C(=O)[O-])=C(C[N+]3(C)CCCC3)CS[C@H]12)c1csc(N)n1; test: as §3
# [21] = substrate: Nc1nc(/C(=N/O)C(=O)N[C@@H]2C(=O)N3C(C(=O)O)=C(/C=C4\CCN([C@@H]5CCNC5)C4=O)CS[C@H]23)ns1; test: as §3
# [22] = substrate: O=C(Cc1cccs1)N[C@@H]1C(=O)N2C(C(=O)[O-])=C(C[n+]3ccccc3)CS[C@H]12; test: as §3
# [23] = substrate: CC(C)(O/N=C(\C(=O)N[C@@H]1C(=O)N2C(C(=O)[O-])=C(C[n+]3ccccc3)CS[C@H]12)c1csc(N)n1)C(=O)O; test: (§4) Activity of Serratia marcescens SME3 assessed as drug hydrolysis by spectrophotometry
# [24] = substrate: CC1(C)S[C@@H]2[C@H](NC(=O)Cc3ccccc3)C(=O)N2[C@H]1C(=O)O; test: as §4
# [25] = substrate: CO/N=C(\C(=O)N[C@@H]1C(=O)N2C(C(=O)[O-])=C(C[N+]3(C)CCCC3)CS[C@H]12)c1csc(N)n1; test: as §4
# [26] = substrate: Nc1nc(/C(=N/O)C(=O)N[C@@H]2C(=O)N3C(C(=O)O)=C(/C=C4\CCN([C@@H]5CCNC5)C4=O)CS[C@H]23)ns1; test: as §4
# [27] = substrate: O=C(Cc1cccs1)N[C@@H]1C(=O)N2C(C(=O)[O-])=C(C[n+]3ccccc3)CS[C@H]12; test: as §4
# [28] = substrate: CC(C)(O/N=C(\C(=O)N[C@@H]1C(=O)N2C(C(=O)[O-])=C(C[n+]3ccccc3)CS[C@H]12)c1csc(N)n1)C(=O)O; test: (§5) Ratio of Kcat to Km of Serratia marcescens SME3 assessed as drug hydrolysis by spectrophotometry
# [29] = substrate: CC1(C)S[C@@H]2[C@H](NC(=O)Cc3ccccc3)C(=O)N2[C@H]1C(=O)O; test: as §5
# [30] = substrate: CO/N=C(\C(=O)N[C@@H]1C(=O)N2C(C(=O)[O-])=C(C[N+]3(C)CCCC3)CS[C@H]12)c1csc(N)n1; test: as §5
# [31] = substrate: Nc1nc(/C(=N/O)C(=O)N[C@@H]2C(=O)N3C(C(=O)O)=C(/C=C4\CCN([C@@H]5CCNC5)C4=O)CS[C@H]23)ns1; test: as §5
# [32] = substrate: O=C(Cc1cccs1)N[C@@H]1C(=O)N2C(C(=O)[O-])=C(C[n+]3ccccc3)CS[C@H]12; test: as §5
# [33] = substrate: CC(C)(O/N=C(\C(=O)N[C@@H]1C(=O)N2C(C(=O)[O-])=C(C[n+]3ccccc3)CS[C@H]12)c1csc(N)n1)C(=O)O; test: (§6) Ratio of Kcat to Km of Pseudomonas aeruginosa IMP1 assessed as drug hydrolysis by spectrophotometry
# [34] = substrate: CC1(C)S[C@@H]2[C@H](NC(=O)Cc3ccccc3)C(=O)N2[C@H]1C(=O)O; test: as §6
# [35] = substrate: CO/N=C(\C(=O)N[C@@H]1C(=O)N2C(C(=O)[O-])=C(C[N+]3(C)CCCC3)CS[C@H]12)c1csc(N)n1; test: as §6
# [36] = substrate: Nc1nc(/C(=N/O)C(=O)N[C@@H]2C(=O)N3C(C(=O)O)=C(/C=C4\CCN([C@@H]5CCNC5)C4=O)CS[C@H]23)ns1; test: as §6
# [37] = substrate: O=C(Cc1cccs1)N[C@@H]1C(=O)N2C(C(=O)[O-])=C(C[n+]3ccccc3)CS[C@H]12; test: as §6
protein,measurement,setting,value
"Beta-lactamase CTX-M (Escherichia coli), Q9EXV5 (protein) MVKKSLRQFTLMATATVTLLLGSVPLYAQTADVQQKLAELERQSGGRLGVALINTADNSQILYRADERFAMCSTSKVMAAAAVLKKSESEPNLLNQRVEIKKSDLVNYNPIAEKHVNGTMSLAELSAAALQYSDNVAMNKLIAHVGGPASVTAFARQLGDETFRLDRTEPTLNTAIPGDPRDTTSPRAMAQTLRNLTLGKALGDSQRAQLVTWMKGNTTGAASIQAGLPASWVVGDKTGSGGYGTTNDIAVIWPKDRAPLILVTYFTQPQPKAESRRDVLASAAKIVTDGL",Km,[1],240 µM
same,kcat,[1],4.4 s⁻¹
same,Km,[2],8.7 µM
same,kcat,[2],47 s⁻¹
same,Km,[3],26 µM
same,kcat,[3],180 s⁻¹
same,Km,[4],180 µM
same,kcat,[4],45 s⁻¹
same,Km,[5],19 µM
same,kcat,[5],270 s⁻¹
same,Km,[6],39 µM
same,kcat,[6],190 s⁻¹
same,kcat/Km,[7],18000 M⁻¹ s⁻¹
same,kcat/Km,[8],5.4e+06 M⁻¹ s⁻¹
same,kcat/Km,[9],6.9e+06 M⁻¹ s⁻¹
same,kcat/Km,[10],250000 M⁻¹ s⁻¹
same,kcat/Km,[11],1.4e+07 M⁻¹ s⁻¹
same,kcat/Km,[12],4.9e+06 M⁻¹ s⁻¹
"Beta-lactamase (Providencia stuartii), O69773 (protein) MDNSMKNIFRQGRLFIALSLAMTSISAFALTQQEVDDIIKPLMKQEQIPGMSVAISVNGKQAIYHYGVQSKQTQIPVSDRTLYEIGSLSKTFTATLATYAQIQGKLDFSQSVSHYLPELKGSAFDNVSVMNLATHTSGLSLFVPSDIKTNDQLMAYYQKWLPDNEVGQYRSYSNLGVGLLGIVTAKQLNMPFSQAMEKLMLPSLGLKHTYIHVPKSQEKYYAQGYNKQNQPVRLNLEILGPEAYGLKSNAKDLIRYLEINMQSIKVAKTWQEAIENTHTGVYLTDSFVQDMMWESYPWPVSLSQLLQGNRDDMALKPQKVELIKPAMAPEVRAYYNKTGSSNGFATYAIFIPEEKIAIVMLSNKWIPIPQRITATYQLLEKIER",Km,[13],26 µM
same,kcat,[13],0.19 s⁻¹
same,Km,[14],14 µM
same,kcat,[14],3.3 s⁻¹
same,Km,[15],780 µM
same,kcat,[15],3 s⁻¹
same,Km,[16],260 µM
same,kcat,[16],0.16 s⁻¹
same,Km,[17],920 µM
same,kcat,[17],530 s⁻¹
same,kcat/Km,[18],7300 M⁻¹ s⁻¹
same,kcat/Km,[19],250000 M⁻¹ s⁻¹
same,kcat/Km,[20],3800 M⁻¹ s⁻¹
same,kcat/Km,[21],620 M⁻¹ s⁻¹
same,kcat/Km,[22],580000 M⁻¹ s⁻¹
"Carbapenem-hydrolyzing beta-lactamase SME-3 (Serratia marcescens), Q6PRG8 (protein) MSNKVNFKTASFLFSVCLALSAFNAHANKSDAAAKQIKKLEEDFDGRIGVFAIDTGSGNTFGYRSDERFPLCSSFKGFLAAAVLERVQQKKLDINQKVKYESRDLEYYSPITTKYKGSGMTLGDMASAALQYSDNGATNIIMERFLGGPEGMTKFMRSIGDNEFRLDRWELELNTAIPGDKRDTSTPKAVANSLNKLALGNVLNAKVKAIYQNWLKGNTTGDARIRASVPADWVVGDKTGSCGAYGTANDYAVIWPKNRAPLIVSIYTTRKSKDDKHSDKTIAEASRIAIQAID",Km,[23],170 µM
same,kcat,[23],0.16 s⁻¹
same,Km,[24],2.2 µM
same,kcat,[24],8.8 s⁻¹
same,Km,[25],280 µM
same,kcat,[25],1.5 s⁻¹
same,Km,[26],270 µM
same,kcat,[26],5.9 s⁻¹
same,Km,[27],400 µM
same,kcat,[27],1200 s⁻¹
same,kcat/Km,[28],940 M⁻¹ s⁻¹
same,kcat/Km,[29],4e+06 M⁻¹ s⁻¹
same,kcat/Km,[30],5400 M⁻¹ s⁻¹
same,kcat/Km,[31],22000 M⁻¹ s⁻¹
same,kcat/Km,[32],3e+06 M⁻¹ s⁻¹
"Metallo beta-lactamase (Pseudomonas aeruginosa), Q6TUJ4 (protein) YVHTSFEEVNGWGVVPKHGLVVLVNAEAYLIDTPFTAKDTEKLVTWFVERGYKIKGSISSHFHSDSTGGIEWLNSRSIPTYASELTNELLKKDGKVQATNSFSGVNYWLVKNKIEVFYPGPGHTPDNVVVWLP",kcat/Km,[33],90000 M⁻¹ s⁻¹
same,kcat/Km,[34],560000 M⁻¹ s⁻¹
same,kcat/Km,[35],150000 M⁻¹ s⁻¹
same,kcat/Km,[36],740000 M⁻¹ s⁻¹
same,kcat/Km,[37],75000 M⁻¹ s⁻¹
